From patent publication US20090048161A1 (VALORISATION HSJ SOCIETE EN COMMANDITE, published 2009)
Blank lines part the entries; values can stand above or below the binder they belong to. Where no end group is shown, it is not given here. [ ]: non-standard residue; d: D form. dOrn = NCCC[C@@H](N)C(=O)O

Columns and labels:
Assay in all cases: cell-based or functional assay
[1] = target: T1, human Insulin-like growth factor 1 receptor (IGF-1R) (human, UniProt P08069 31-1367)
[2] = target: T1, human Insulin-like growth factor 1 …; remark: listed apart in the source
[3] = target: T1, human Insulin-like growth factor 1 …; remark: listed apart in the source
[4] = target: T2, IL-1R of pig (piglet pial vessels; porcine endothelial cells) (porcine (piglet), UniProt A0A5G2QSI4 18-572)
T2 sequence: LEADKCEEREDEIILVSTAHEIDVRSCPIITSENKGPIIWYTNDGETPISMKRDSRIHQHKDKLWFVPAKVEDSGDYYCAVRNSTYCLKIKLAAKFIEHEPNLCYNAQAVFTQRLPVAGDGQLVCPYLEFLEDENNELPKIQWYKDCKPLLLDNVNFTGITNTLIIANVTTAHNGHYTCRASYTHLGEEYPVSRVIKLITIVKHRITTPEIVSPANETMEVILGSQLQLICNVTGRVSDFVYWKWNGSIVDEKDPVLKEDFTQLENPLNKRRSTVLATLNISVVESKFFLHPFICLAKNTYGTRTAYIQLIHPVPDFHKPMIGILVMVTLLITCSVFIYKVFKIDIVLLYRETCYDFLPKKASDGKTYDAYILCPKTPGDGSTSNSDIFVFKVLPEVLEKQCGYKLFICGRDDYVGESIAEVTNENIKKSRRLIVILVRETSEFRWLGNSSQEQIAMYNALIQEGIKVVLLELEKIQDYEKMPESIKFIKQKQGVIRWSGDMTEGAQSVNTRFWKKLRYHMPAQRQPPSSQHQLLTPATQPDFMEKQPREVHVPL

[5] = target: IGF-1 receptor of rat aorta (rat, UniProt P24062 31-1370)
[6] = target: T3, human Interleukin-1 receptor (IL-1R-alpha) (human, UniProt P14778 18-569)
T3 sequence: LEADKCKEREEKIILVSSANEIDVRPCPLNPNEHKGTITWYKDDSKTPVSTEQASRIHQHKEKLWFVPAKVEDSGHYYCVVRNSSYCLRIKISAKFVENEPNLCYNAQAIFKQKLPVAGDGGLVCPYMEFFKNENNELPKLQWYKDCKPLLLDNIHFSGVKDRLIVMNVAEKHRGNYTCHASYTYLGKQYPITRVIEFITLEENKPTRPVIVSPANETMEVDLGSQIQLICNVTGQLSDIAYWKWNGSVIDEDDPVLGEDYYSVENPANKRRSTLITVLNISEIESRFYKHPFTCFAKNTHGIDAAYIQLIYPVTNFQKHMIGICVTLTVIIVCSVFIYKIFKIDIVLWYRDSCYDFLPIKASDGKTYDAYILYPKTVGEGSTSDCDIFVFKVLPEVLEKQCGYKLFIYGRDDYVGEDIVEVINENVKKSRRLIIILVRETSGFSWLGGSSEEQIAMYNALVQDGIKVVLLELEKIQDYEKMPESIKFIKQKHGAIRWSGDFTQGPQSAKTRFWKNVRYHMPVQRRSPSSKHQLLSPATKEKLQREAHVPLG

[7] = target: T1, human Insulin-like growth factor 1 …; remark: listed apart in the source
[8] = target: T2, IL-1R of pig (piglet pial vessels; …); remark: listed apart in the source
[9] = target: T3, human Interleukin-1 receptor …; remark: listed apart in the source
[10] = target: T3, human Interleukin-1 receptor …; remark: listed apart in the source
VEGFR-2 (Flk-1) = VEGFR-2 (Flk-1) (human, UniProt P35968 20-1356)
[11] = target: IL-1R (cells or tissue whose species or assay the filing does not state at that place)

T1 sequence (P08069 31-1367 limits assumed): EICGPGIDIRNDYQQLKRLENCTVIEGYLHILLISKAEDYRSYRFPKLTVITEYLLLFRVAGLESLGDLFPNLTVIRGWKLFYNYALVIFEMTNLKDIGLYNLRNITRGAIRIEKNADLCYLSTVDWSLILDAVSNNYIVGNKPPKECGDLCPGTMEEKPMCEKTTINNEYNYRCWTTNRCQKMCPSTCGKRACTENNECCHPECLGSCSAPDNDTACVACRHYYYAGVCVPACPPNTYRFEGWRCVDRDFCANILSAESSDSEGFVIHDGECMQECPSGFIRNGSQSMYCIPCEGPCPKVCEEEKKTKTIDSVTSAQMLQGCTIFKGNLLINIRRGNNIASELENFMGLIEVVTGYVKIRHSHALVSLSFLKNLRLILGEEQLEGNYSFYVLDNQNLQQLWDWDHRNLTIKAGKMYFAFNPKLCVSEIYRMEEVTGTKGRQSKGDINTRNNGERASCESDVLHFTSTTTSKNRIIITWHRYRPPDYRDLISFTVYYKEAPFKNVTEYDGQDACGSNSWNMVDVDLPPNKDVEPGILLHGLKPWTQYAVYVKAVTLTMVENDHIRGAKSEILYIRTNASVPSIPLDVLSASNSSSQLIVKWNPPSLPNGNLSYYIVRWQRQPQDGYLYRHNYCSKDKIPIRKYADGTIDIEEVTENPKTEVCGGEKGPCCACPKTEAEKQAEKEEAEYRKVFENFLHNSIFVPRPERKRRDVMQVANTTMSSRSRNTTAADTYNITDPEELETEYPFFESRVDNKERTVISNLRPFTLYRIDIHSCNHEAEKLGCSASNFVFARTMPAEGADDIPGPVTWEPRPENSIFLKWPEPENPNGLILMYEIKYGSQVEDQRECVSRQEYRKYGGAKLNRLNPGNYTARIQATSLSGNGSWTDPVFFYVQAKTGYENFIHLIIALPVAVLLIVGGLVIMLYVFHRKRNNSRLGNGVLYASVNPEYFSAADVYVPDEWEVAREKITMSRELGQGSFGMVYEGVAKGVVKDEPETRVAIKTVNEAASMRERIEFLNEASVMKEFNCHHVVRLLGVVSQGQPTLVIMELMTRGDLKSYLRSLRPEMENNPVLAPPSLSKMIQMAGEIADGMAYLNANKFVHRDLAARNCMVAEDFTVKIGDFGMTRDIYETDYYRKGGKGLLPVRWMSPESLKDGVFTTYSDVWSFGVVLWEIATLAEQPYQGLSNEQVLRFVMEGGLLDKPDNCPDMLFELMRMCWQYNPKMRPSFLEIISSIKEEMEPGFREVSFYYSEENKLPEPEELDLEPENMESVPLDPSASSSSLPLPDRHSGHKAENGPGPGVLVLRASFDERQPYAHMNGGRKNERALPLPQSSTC
IGF-1 receptor of rat aorta, sequence (P24062 31-1370): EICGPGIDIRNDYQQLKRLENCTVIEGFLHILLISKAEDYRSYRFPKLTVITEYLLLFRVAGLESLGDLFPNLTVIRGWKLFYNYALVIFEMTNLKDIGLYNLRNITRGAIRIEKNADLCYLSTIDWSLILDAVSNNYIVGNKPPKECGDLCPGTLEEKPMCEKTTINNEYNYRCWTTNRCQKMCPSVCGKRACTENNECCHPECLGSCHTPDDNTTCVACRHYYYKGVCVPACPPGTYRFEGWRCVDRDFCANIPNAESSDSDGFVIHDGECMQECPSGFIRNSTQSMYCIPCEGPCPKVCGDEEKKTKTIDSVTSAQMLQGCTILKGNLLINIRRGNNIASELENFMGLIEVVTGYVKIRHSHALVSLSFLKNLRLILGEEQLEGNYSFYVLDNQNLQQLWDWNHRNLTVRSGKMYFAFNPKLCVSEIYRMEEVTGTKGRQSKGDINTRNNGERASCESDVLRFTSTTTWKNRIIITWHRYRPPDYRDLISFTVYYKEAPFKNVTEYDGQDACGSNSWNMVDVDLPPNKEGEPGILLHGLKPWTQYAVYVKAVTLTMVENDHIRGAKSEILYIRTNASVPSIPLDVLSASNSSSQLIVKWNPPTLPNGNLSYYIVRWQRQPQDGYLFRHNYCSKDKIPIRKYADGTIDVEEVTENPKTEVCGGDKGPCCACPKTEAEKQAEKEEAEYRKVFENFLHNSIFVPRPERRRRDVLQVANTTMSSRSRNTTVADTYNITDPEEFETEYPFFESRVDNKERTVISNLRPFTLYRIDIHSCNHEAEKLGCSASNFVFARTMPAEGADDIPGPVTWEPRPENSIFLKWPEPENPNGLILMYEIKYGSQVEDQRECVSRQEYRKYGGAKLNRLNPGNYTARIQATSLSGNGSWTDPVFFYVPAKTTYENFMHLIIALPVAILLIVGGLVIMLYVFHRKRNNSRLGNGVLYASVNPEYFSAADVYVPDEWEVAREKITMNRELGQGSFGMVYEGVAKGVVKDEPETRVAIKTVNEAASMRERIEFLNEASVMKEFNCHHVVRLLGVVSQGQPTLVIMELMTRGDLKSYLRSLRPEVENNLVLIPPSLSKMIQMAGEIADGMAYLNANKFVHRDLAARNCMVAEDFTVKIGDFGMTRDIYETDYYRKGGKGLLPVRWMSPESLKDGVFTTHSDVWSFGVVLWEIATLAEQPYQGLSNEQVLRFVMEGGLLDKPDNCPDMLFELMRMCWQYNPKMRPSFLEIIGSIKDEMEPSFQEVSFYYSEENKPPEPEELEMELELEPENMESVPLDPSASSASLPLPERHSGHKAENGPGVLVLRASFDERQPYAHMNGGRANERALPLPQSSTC
VEGFR-2 (Flk-1), sequence (P35968 20-1356 limits assumed): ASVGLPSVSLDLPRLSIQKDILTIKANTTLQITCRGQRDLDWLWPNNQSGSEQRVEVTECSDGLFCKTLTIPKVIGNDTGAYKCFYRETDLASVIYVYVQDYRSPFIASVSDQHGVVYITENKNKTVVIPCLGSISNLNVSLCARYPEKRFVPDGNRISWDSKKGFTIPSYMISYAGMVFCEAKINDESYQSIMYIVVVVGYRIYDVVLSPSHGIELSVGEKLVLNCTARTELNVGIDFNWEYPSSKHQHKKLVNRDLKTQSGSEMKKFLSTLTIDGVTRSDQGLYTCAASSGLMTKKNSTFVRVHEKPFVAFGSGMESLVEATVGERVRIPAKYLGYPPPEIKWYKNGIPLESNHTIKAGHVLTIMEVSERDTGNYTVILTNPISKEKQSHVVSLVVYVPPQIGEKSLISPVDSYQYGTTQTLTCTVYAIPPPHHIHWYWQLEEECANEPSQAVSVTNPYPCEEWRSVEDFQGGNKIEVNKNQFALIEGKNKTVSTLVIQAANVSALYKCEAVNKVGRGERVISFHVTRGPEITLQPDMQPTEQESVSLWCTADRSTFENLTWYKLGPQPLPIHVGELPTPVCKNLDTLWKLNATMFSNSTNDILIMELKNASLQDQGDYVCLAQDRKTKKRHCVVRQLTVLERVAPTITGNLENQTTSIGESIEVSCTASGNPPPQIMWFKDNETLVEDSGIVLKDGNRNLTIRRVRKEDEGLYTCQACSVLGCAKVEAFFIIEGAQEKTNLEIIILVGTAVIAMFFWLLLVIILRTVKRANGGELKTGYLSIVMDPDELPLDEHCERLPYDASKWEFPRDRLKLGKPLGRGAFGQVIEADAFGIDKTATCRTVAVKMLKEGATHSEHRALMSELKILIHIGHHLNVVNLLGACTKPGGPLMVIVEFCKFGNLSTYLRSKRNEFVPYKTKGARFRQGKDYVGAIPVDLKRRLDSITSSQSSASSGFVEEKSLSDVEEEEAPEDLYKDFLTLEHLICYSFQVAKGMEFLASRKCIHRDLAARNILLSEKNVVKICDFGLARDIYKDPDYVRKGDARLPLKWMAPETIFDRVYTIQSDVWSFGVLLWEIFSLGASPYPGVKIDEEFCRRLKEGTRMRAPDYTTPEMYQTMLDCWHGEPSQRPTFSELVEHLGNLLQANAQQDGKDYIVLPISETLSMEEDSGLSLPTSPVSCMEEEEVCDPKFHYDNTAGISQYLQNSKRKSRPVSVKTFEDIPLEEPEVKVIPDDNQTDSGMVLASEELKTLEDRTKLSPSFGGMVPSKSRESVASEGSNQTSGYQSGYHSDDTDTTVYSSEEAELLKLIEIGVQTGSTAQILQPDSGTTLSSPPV

B1: APG-202 (peptide)
peptide: [dE][dS][dD][dV][dL][dH][dF][dT][dS][dT]
EC50, IGF-1 induced proliferation, 3H-thymidine, A549 carcinoma cells [1]: 10 nM | EC50, IGF-1 (50 ng/ml)-induced proliferation, MCF-7 [2]: 300 nM | Emax, IGF-1 (50 ng/ml)-induced proliferation, MCF-7 [2]: 20%

B3: API-101.114 (peptide)
peptide: [dK][dY][dT][dP][dE][dL][dA]
Emax (%), IL-1β-induced PGE2 synthesis in endothelial cells (porcine) [4]: 50% | IC50, IL-1β-induced PGE2 synthesis in endothelial cells (porcine) [4]: 0.002 nM

B4: APG-205 (peptide)
peptide: ENFLHLLLA
EC50, IGF-1 (50 ng/ml)-induced proliferation, MCF-7 [2]: 0.1 nM | EC50, IGF-1 (50 ng/ml)-induced proliferation, MDA-MB-231 [2]: 100 nM | Emax, IGF-1 (50 ng/ml)-induced proliferation, MCF-7 [2]: 60% | Emax, IGF-1 (50 ng/ml)-induced proliferation, MDA-MB-231 [2]: 100% | EC50, inhibition of ex vivo IGF-1-induced vasorelaxation of rat aorta [5]: 70 nM | Emax, inhibition of ex vivo IGF-1-induced vasorelaxation of rat aorta [5]: 25%

B5: API-103 (peptide)
peptide: MKLPVHKLY
EC50, IL-1 induced proliferation, 3H-thymidine, A549 carcinoma cells [6]: 1000 nM

B6: APG-201 (peptide)
peptide: [dS][dL][dF][dV][dP][dR][dP][dE][dR][dK]
EC50, IGF-1 induced proliferation, 3H-thymidine, A549 carcinoma cells [1]: 1000 nM | EC50, IGF-1 (50 ng/ml)-induced proliferation, MCF-7 [2]: 35 nM | EC50, IGF-1 (50 ng/ml)-induced proliferation, MDA-MB-231 [2]: 0.1 nM | Emax, IGF-1 (50 ng/ml)-induced proliferation, MCF-7 [2]: 20% | Emax, IGF-1 (50 ng/ml)-induced proliferation, MDA-MB-231 [2]: 100%

B11: API-101.103 (peptide)
peptide: [dR][dY][dT][dV][dQ][dL][dA]
IC50, PGE2 measurement, human WI-38 cells [6]: 50 nM

B12: API-101.135 (peptide)
peptide: R[dY][dT][dP][dE][dL]
Emax (%), IL-1β-induced TF-1 proliferation [9]: 63%

B13: APG-206.7 (peptide)
peptide: ERTVLSNL
Emax, IGF-1-induced proliferation, NIH3T3-IGF-1R cells [3]: 100% | IC50, IGF-1-induced proliferation, NIH3T3-IGF-1R cells [3]: 20 nM | Emax, proliferation, MCF-7 (breast cancer) cells [7]: 90% | IC50, proliferation, MCF-7 (breast cancer) cells [7]: 0.01 nM

B15: VEGFR peptide 2.1 (peptide)
peptide: [dA][dQ][dE][dK][dT][dN][dL][dE][dI][dI][dI][dL][dV]G
modifications: not fully specified (residue 14)
EC50, VEGF (2 ng/ml)-induced proliferation, 3H-thymidine, PAEC transfected with Flk-1 (VEGFR-2 (Flk-1)): 9000 nM

B16: APG-206.8 (peptide)
peptide: RTVLSNL
Emax, proliferation, MCF-7 (breast cancer) cells [7]: 100% | IC50, proliferation, MCF-7 (breast cancer) cells [7]: 0.6 nM

B17: API-101.127 (peptide)
peptide: [dR][dF][dV][dP][dE][dL][dA]
Emax (%), IL-1β-induced TF-1 proliferation [9]: < 30%

B18: API-101.129 (peptide)
peptide: [dR][dY][dT][dP][dE][dV]
Emax (%), IL-1β-induced TF-1 proliferation [9]: 50% | IC50, IL-1β-induced TF-1 proliferation [9]: 400 nM

B19: API-101.107 (peptide)
peptide: [dR][dY][dT][dP][dE][dL][dA]
IC50, PGE2 measurement, human WI-38 cells [6]: 100 nM | IC50 (assay not given) [11]: 0.0012 nM

B20: APG-206 (peptide)
peptide: KERTVISNLR
EC50, IGF-1 (50 ng/ml)-induced proliferation, HepG2 [2]: < 0.1 nM | EC50, IGF-1 (50 ng/ml)-induced proliferation, MCF-7 [2]: 2 nM | Emax, IGF-1 (50 ng/ml)-induced proliferation, MCF-7 [2]: 60% | EC50, inhibition of ex vivo IGF-1-induced vasorelaxation of rat aorta [5]: 689 nM | Emax, inhibition of ex vivo IGF-1-induced vasorelaxation of rat aorta [5]: 75%

B21: API-101.115 (peptide)
peptide: [dOrn][dY][dT][dP][dE][dL][dA]
Emax (%), IL-1β-induced proliferation in TF-1 cells (human) [10]: 100% | IC50, IL-1β-induced proliferation in TF-1 cells (human) [10]: ~0.001 nM

B23: API-101.133 (peptide)
peptide: [dK][dY][dT][dP][dE][dL]
Emax (%), IL-1β-induced TF-1 proliferation [9]: < 10%

B25: VEGFR peptide 2.2 (peptide)
peptide: [dE][dA][dT][dV]G[dE][dR][dV][dR][dL]
modifications: not fully specified (residue 5)
EC50, VEGF (2 ng/ml)-induced proliferation, 3H-thymidine, PAEC transfected with Flk-1 (VEGFR-2 (Flk-1)): 9000 nM

B27: API-101.128 (peptide)
peptide: [dR][dW][dT][dP][dE][dL]
Emax (%), IL-1β-induced TF-1 proliferation [9]: 100% | IC50, IL-1β-induced TF-1 proliferation [9]: 3 nM

B28: API-101.126 (peptide)
peptide: [dOrn][dY][dT][dP][dE][dL]
Emax (%), IL-1β-induced TF-1 proliferation [9]: 0%

B29: API-101.116 (peptide)
peptide: [dR][dW][dT][dP][dE][dL][dA]
Emax (%), IL-1β-induced PGE2 synthesis in endothelial cells (porcine) [4]: 45% | IC50, IL-1β-induced PGE2 synthesis in endothelial cells (porcine) [4]: 0.013 nM | Emax (%), IL-1β-induced proliferation in TF-1 cells (human) [10]: 75% | IC50, IL-1β-induced proliferation in TF-1 cells (human) [10]: 0.5 nM

Results, then the binder that gave them:

Emax, IGF-1-induced proliferation, NIH3T3-IGF-1R cells [3]: 90% | IC50, IGF-1-induced proliferation, NIH3T3-IGF-1R cells [3]: 20 nM
B2: APG-206.9 (peptide)
peptide: TVLSNL

Emax, IGF-1-induced proliferation, NIH3T3-IGF-1R cells [3]: 75% | IC50, IGF-1-induced proliferation, NIH3T3-IGF-1R cells [3]: 0.5 nM | Emax, proliferation, MCF-7 (breast cancer) cells [7]: 100% | IC50, proliferation, MCF-7 (breast cancer) cells [7]: 9 nM
B7: APG-206.5 (peptide)
peptide: KERTVLS

EC50, IGF-1 (50 ng/ml)-induced proliferation, HepG2 [2]: < 0.1 nM | EC50, IGF-1 (50 ng/ml)-induced proliferation, MCF-7 [2]: 8 nM | EC50, IGF-1 (50 ng/ml)-induced proliferation, MDA-MB-231 [2]: 0.1 nM | Emax, IGF-1 (50 ng/ml)-induced proliferation, MCF-7 [2]: 45% | Emax, IGF-1 (50 ng/ml)-induced proliferation, MDA-MB-231 [2]: 100% | EC50, inhibition of ex vivo IGF-1-induced vasorelaxation of rat aorta [5]: 96 nM | Emax, inhibition of ex vivo IGF-1-induced vasorelaxation of rat aorta [5]: 50%
B8: APG-203 (peptide)
peptide: RTNASVPSI

IC50, IL-1-induced PGE2 synthesis, endothelial cells [8]: 220 nM | IC50, prevention of IL-1β (75 ng/ml)-induced vasodilation, piglet pial vessels [8]: 182 nM | EC50, IL-1 induced proliferation, 3H-thymidine, A549 carcinoma cells [6]: 1000 nM | IC50, IL-1-induced PGE2 synthesis, WI-38 cells [6]: 790 nM | percent of IL-1β-induced WI-38 (human lung fibroblasts) proliferation abolished, 3H-thymidine [6]: 65%
B9: API-101 (peptide)
peptide: [dA][dP][dR][dY][dT][dV][dE][dL][dA]

Emax (%), IL-1β-induced TF-1 proliferation [9]: 70% | Emax (%), IL-1β-induced PGE2 synthesis in endothelial cells (porcine) [4]: 80% | IC50, IL-1β-induced PGE2 synthesis in endothelial cells (porcine) [4]: 0.0074 nM | Emax (%), IL-1β-induced proliferation in TF-1 cells (human) [10]: 100%
B10: API-101.113 (peptide)
peptide: [dR][dY][dT][dP][dE][dL]

EC50, IL-1 induced proliferation, 3H-thymidine, A549 carcinoma cells [6]: 10000 nM
B14: API-106 (peptide)
peptide: VGSPKNAVPPV

IC50, IL-1-induced PGE2 synthesis, endothelial cells [8]: 1.2 nM | IC50, prevention of IL-1β (75 ng/ml)-induced vasodilation, piglet pial vessels [8]: 10.8 nM | IC50, IL-1-induced PGE2 synthesis, WI-38 cells [6]: 0.2 nM | percent of IL-1β-induced WI-38 (human lung fibroblasts) proliferation abolished, 3H-thymidine [6]: 100%
B22: API-101.10 (peptide)
peptide: [dR][dY][dT][dV][dE][dL][dA]
modifications: also: 125I-labelled form used as tracer, site not given here

percent of IL-1β-induced WI-38 (human lung fibroblasts) proliferation abolished, 3H-thymidine [6]: 100%
B24: API-101.11 (peptide)
peptide: [dY][dT][dV][dE][dL][dA]

Emax (%), IL-1β-induced PGE2 synthesis in endothelial cells (porcine) [4]: 100% | IC50, IL-1β-induced PGE2 synthesis in endothelial cells (porcine) [4]: 0.01 nM
B26: API-101.117 (peptide)
peptide: [dR][dY][dT][dP][dD][dL][dA]
